{
  "source": "paper doi:10.1101/2021.05.19.444834",
  "key": {"[1]": {"molecular_target": "unmodified C62A ThfA (Thermobifida fusca)", "experiment": "BLI"}, "[2]": {"molecular_target": "doubly dehydrated C62A ThfA (Thermobifida fusca)", "experiment": "BLI"}},
  "data": [
    {"substance": "maltose binding protein (MBP) fusion to ThfB (enzyme)", "values": [
      {"measurement": "Kd", "setting": "[1]", "result": 28, "unit": "nM"},
      {"measurement": "Kd", "setting": "[2]", "result": 18, "unit": "nM"}
    ]}
  ]
}
